Target: T1, GFP-fused SYP132 (SYNTAXIN OF PLANTS132) expressed under its native promoter (Arabidopsis thaliana, UniProt Q8VZU2 1-304)
T1 construct: SYNTAXIN OF PLANTS132 (SYP132), Arabidopsis thaliana, At5g08080; also called GFP-SYP132; SYP132p:GFP-SYP132; source: Arabidopsis SYP132p:GFP-SYP132 transgenic line, in leaf lysate
T1 sequence (looked up): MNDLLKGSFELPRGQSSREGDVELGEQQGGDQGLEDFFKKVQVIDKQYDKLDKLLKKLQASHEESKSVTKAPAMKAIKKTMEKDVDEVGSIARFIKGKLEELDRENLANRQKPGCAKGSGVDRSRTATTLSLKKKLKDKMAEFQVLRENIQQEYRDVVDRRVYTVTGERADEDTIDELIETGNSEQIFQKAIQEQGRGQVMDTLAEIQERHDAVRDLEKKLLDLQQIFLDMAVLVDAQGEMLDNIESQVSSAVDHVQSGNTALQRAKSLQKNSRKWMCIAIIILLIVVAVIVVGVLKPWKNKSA
Test: co-IP; GFP-Trap agarose beads saturated with GFP-tagged bait from Arabidopsis leaf lysates; plants treated 24 h without or with Pst DC3000 in 10 mM MgCl2; binding buffer PBS pH 7.45, 0.01% Triton X-100, 0.05 mM DTT, 0.01% CHAPS, 1 h at 4°C; washes with additional 150 mM NaCl; bound proteins detected by immunoblot
Details: partners not purified

fold change of Co-IP bound/bait after Pst DC3000 infection relative to buffer control: ~2.5 fold
B1: PM H+-ATPase 1 (AHA1), native (natural protein, UniProt P20649 1-949, looked up)
chain: MSGLEDIKNETVDLEKIPIEEVFQQLKCTREGLTTQEGEDRIVIFGPNKLEEKKESKILKFLGFMWNPLSWVMEAAALMAIALANGDNRPPDWQDFVGIICLLVINSTISFIEENNAGNAAAALMAGLAPKTKVLRDGKWSEQEAAILVPGDIVSIKLGDIIPADARLLEGDPLKVDQSALTGESLPVTKHPGQEVFSGSTCKQGEIEAVVIATGVHTFFGKAAHLVDSTNQVGHFQKVLTSIGNFCICSIAIGIAIEIVVMYPIQHRKYRDGIDNLLVLLIGGIPIAMPTVLSVTMAIGSHRLSQQGAITKRMTAIEEMAGMDVLCSDKTGTLTLNKLSVDKNLVEVFCKGVEKDQVLLFAAMASRVENQDAIDAAMVGMLADPKEARAGIREVHFLPFNPVDKRTALTYIDSDGNWHRVSKGAPEQILDLANARPDLRKKVLSCIDKYAERGLRSLAVARQVVPEKTKESPGGPWEFVGLLPLFDPPRHDSAETIRRALNLGVNVKMITGDQLAIGKETGRRLGMGTNMYPSAALLGTDKDSNIASIPVEELIEKADGFAGVFPEHKYEIVKKLQERKHIVGMTGDGVNDAPALKKADIGIAVADATDAARGASDIVLTEPGLSVIISAVLTSRAIFQRMKNYTIYAVSITIRIVFGFMLIALIWEFDFSAFMVLIIAILNDGTIMTISKDRVKPSPTPDSWKLKEIFATGIVLGGYQAIMSVIFFWAAHKTDFFSDKFGVRSIRDNNDELMGAVYLQVSIISQALIFVTRSRSWSFVERPGALLMIAFVIAQLVATLIAVYADWTFAKVKGIGWGWAGVIWIYSIVTYFPQDILKFAIRYILSGKAWASLFDNRTAFTTKKDYGIGEREAQWAQAQRTLHGLQPKEDVNIFPEKGSYRELSEIAEQAKRRAEIARLRELHTLKGHVESVAKLKGLDIDTAGHHYTV
notes: Plasma membrane H+-ATPase 1 (AHA1), Arabidopsis thaliana, At2g18960; detected with anti-AHA1 antibodies at ~100 kDa; also called AHA1 isoform; plasma membrane H+-ATPase AHA1; source: endogenous, Arabidopsis leaf lysate

Source: article PMC9237740, “SNARE SYP132 mediates divergent traffic of plasma membrane H^+-ATPase AHA1 and antimicrobial PR1 during bacterial pathogenesis” (Plant Physiology, 2022)
